Biological target: T1, GST tagged ecto-basigin (recombinant mouse basigin) (mouse (C57BL/6J), UniProt P18572 22-325)
T1 chain: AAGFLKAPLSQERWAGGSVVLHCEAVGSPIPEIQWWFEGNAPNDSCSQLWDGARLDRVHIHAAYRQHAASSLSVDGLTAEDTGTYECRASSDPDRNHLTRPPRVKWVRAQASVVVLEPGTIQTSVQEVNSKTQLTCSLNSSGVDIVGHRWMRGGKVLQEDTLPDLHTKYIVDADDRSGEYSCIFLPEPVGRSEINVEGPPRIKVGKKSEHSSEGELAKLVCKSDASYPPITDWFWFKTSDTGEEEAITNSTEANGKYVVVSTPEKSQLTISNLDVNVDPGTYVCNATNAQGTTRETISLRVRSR
Experiment: SPR

Row | Molecule | koff
1 | recombinant PyEBL R1-2 (amino acid V28-G437) (domain or fragment) VNLLKRTYESFQSFPLKNNSGNRILYELKESLYNIENGETWGDLVSKDNEIFGGKDHILSENYTSDSVNSKKESNFLETGKISLVEKNGNVNYKDYFDKYQVNECKEKNKNEIHAWICDNEKQNCIPSRRINLCTKRLEIIPDTIKIPDNKTKELLMDYFKQFIYKDAAREGELLLNKYDDKNNNEYCNDMINSFGDYKNIVEGTGLKNVANESLLELKIQNIFGTDDNAKRNRKTWWKNHEHIVWKAMVLGKNFNETSNYKNVCTNYKLEDYHSQIERWTREWIQEFSVQYFKEANKINNKCTKKSNISTESICINNECKNACNTYEAWISVNKSKWDTLLQRFSQFNKSYFSEETCRDKAYNSLMIEFKEAYEANFENVINLDDDHYTGLCVCSSVKPSNTPINNNLG | 0.00713 s⁻¹
2 | recombinant PyEBL R2, the N-terminal Cys-rich Duffy binding-like region (E113-G437) (domain or fragment) EKNGNVNYKDYFDKYQVNECKEKNKNEIHAWICDNEKQNCIPSRRINLCTKRLEIIPDTIKIPDNKTKELLMDYFKQFIYKDAAREGELLLNKYDDKNNNEYCNDMINSFGDYKNIVEGTGLKNVANESLLELKIQNIFGTDDNAKRNRKTWWKNHEHIVWKAMVLGKNFNETSNYKNVCTNYKLEDYHSQIERWTREWIQEFSVQYFKEANKINNKCTKKSNISTESICINNECKNACNTYEAWISVNKSKWDTLLQRFSQFNKSYFSEETCRDKAYNSLMIEFKEAYEANFENVINLDDDHYTGLCVCSSVKPSNTPINNNLG | 0.00104 s⁻¹
3 | recombinant PyEBL ectodomain spanning region 1 to region 6 (PyEBL R1-6; amino acids V28-N788) (domain or fragment) VNLLKRTYESFQSFPLKNNSGNRILYELKESLYNIENGETWGDLVSKDNEIFGGKDHILSENYTSDSVNSKKESNFLETGKISLVEKNGNVNYKDYFDKYQVNECKEKNKNEIHAWICDNEKQNCIPSRRINLCTKRLEIIPDTIKIPDNKTKELLMDYFKQFIYKDAAREGELLLNKYDDKNNNEYCNDMINSFGDYKNIVEGTGLKNVANESLLELKIQNIFGTDDNAKRNRKTWWKNHEHIVWKAMVLGKNFNETSNYKNVCTNYKLEDYHSQIERWTREWIQEFSVQYFKEANKINNKCTKKSNISTESICINNECKNACNTYEAWISVNKSKWDTLLQRFSQFNKSYFSEETCRDKAYNSLMIEFKEAYEANFENVINLDDDHYTGLCVCSSVKPSNTPINNNLGYKQTLETQNPTDASQNTLFPPFSTGTETDLFKEDDDDNGGFDLLSYNNADAQNLRNSTPTDQVGVNNEQNKLNQNAESNNKYELQIMGNHANSDNTYHNIIIPSQENNIYTSTPESVTINPTSTSNTNENQTLTPNSTLTPTLTSNSNPTQIPTQPQPQFPIPPQPQFPIPPETQFPIPPETQIPTPTLNPNATNKGVKEHHFNTNGIENGNTMKDQMNIPPIKFNIDPKHDNTINGGFSRINNDNDSENANKLGIDEYEHRDIKKSRENIIMLANENVCNGNPGLKYCESINNKYFHGTCSKSQTQNLCCSISNYCIKFFNINSKKYYDCMNEEFMAPDYNCFQKESYSN | 0.00106 s⁻¹

Biological target: GST tagged ecto-basigin (recombinant mouse basigin) (mouse (C57BL/6J)) (UniProt P18572)
Experiment: SPR; Biacore X100; recombinant mouse basigin (GST tagged) immobilised on CM5 chip by amine coupling; PyEBL regions as analytes; HBS-EP+ (10 mM HEPES pH 7.4, 150 mM NaCl, 3 mM EDTA, 0.05% P20); single-cycle kinetics, 1:1 binding model

Row | Molecule | Kd
4 | recombinant PyEBL C351Y (domain or fragment) | 26 nM
5 | recombinant PyEBL R1-2 (amino acid V28-G437) (domain or fragment) | 16 nM
6 | recombinant PyEBL R2, the N-terminal Cys-rich Duffy binding-like region (E113-G437) (domain or fragment) | 34 nM
7 | recombinant PyEBL ectodomain spanning region 1 to region 6 (PyEBL R1-6; amino acids V28-N788) (domain or fragment) | 33 nM

Reference: publication PMC8079763 (2021)
